Laboratory results published in the Immune Epitope Database (IEDB).

How the values were obtained:
Test in all cases: IEDB peptide-MHC binding, purified MHC/competitive/radioactivity; filed as Kd, often an IC50 or EC50 that approximates it; ≥ and ≤ were set here for values at or beyond the usual limits of such assays
HLA-A*24:02 = molecular target: HLA-A*24:02
HLA-A*23:01 = molecular target: HLA-A*23:01
HLA-A*01:01 = molecular target: HLA-A*01:01
HLA-A*26:01 = molecular target: HLA-A*26:01
HLA-A*30:02 = molecular target: HLA-A*30:02
HLA-A*29:02 = molecular target: HLA-A*29:02
HLA-B*07:02 = molecular target: HLA-B*07:02
HLA-B*51:01 = details: source organism: Dengue virus 4 Philippines/H241/1956
HLA-A*33:01 = molecular target: HLA-A*33:01
HLA-A*31:01 = molecular target: HLA-A*31:01
HLA-A*32:01 = molecular target: HLA-A*32:01
HLA-A*11:01 = details: source organism: Vaccinia virus WR
HLA-A*03:01 = details: source organism: Vaccinia virus WR
HLA-A*68:01 = details: source organism: Vaccinia virus WR
HLA-B*08:01 = details: source organism: Vaccinia virus WR
HLA-A*30:01 = details: source organism: Vaccinia virus WR
HLA-B*44:02 = details: source organism: Dengue virus 4 Philippines/H241/1956
[1] = source organism: SARS coronavirus Tor2
[2] = source organism: Dengue virus 4 Philippines/H241/1956
[3] = source organism: Mammarenavirus choriomeningitidis
[4] = source organism: Mammarenavirus lassaense
[5] = source organism: Dengue virus 4 Dominica/814669/1981
[6] = source organism: Mammarenavirus guanaritoense
[7] = source organism: Mammarenavirus machupoense
[8] = source organism: Vaccinia virus WR
[9] = source organism: Mammarenavirus juninense

HTSSMRGVY
Kd (HLA-A*24:02; [1]): ≥ 77600 nM
Kd (HLA-A*23:01; [1]): ≥ 77800 nM
Kd (HLA-A*01:01; [1]): 85.2 nM
Kd (HLA-A*26:01; [1]): 4.78 nM
Kd (HLA-A*30:02; [1]): 0.131 nM
Kd (HLA-A*29:02; [1]): 8.21 nM

SPIINRKGKV
Kd (HLA-B*07:02; [2]): 248 nM
Kd (HLA-B*51:01): ≥ 69600 nM

EGFMRKQKY
Kd (HLA-A*24:02; [3]): ≥ 77500 nM
Kd (HLA-A*23:01; [3]): ≥ 56100 nM
Kd (HLA-A*01:01; [3]): ≥ 49600 nM
Kd (HLA-A*26:01; [3]): ≥ 77900 nM
Kd (HLA-A*30:02; [3]): ≥ 53500 nM
Kd (HLA-A*29:02; [3]): ≥ 78900 nM

ESDGKPQKV
Kd (HLA-A*24:02; [4]): ≥ 77500 nM
Kd (HLA-A*23:01; [4]): ≥ 77700 nM
Kd (HLA-A*01:01; [4]): 188 nM
Kd (HLA-A*26:01; [4]): ≥ 77900 nM
Kd (HLA-A*30:02; [4]): ≥ 76900 nM
Kd (HLA-A*29:02; [4]): ≥ 78900 nM

FFTYLCGFI
Kd (HLA-A*24:02; [1]): 18800 nM
Kd (HLA-A*23:01; [1]): 13700 nM
Kd (HLA-A*01:01; [1]): ≥ 43100 nM
Kd (HLA-A*26:01; [1]): ≥ 77900 nM
Kd (HLA-A*30:02; [1]): ≥ 78900 nM
Kd (HLA-A*29:02; [1]): 822 nM

MFGGVSWMIR
Kd (HLA-A*33:01; [5]): 14.8 nM
Kd (HLA-A*31:01; [5]): 7.52 nM
Kd (HLA-A*32:01; [5]): 1430 nM

NPNMTDKTPV
Kd (HLA-B*07:02; [2]): 118 nM

MWSFNPETNI
Kd (HLA-A*24:02; [1]): 551 nM
Kd (HLA-A*23:01; [1]): 407 nM
Kd (HLA-A*01:01; [1]): ≥ 70400 nM
Kd (HLA-A*26:01; [1]): ≥ 39100 nM
Kd (HLA-A*30:02; [1]): ≥ 24700 nM
Kd (HLA-A*29:02; [1]): 13300 nM

ILLNNPNLF
Kd (HLA-A*24:02; [6]): 793 nM
Kd (HLA-A*23:01; [6]): 423 nM
Kd (HLA-A*29:02; [6]): 46.7 nM

GYTMHANYIF
Kd (HLA-A*24:02; [1]): 11.1 nM
Kd (HLA-A*23:01; [1]): 16.4 nM
Kd (HLA-A*01:01; [1]): ≥ 44100 nM
Kd (HLA-A*26:01; [1]): ≥ 41100 nM
Kd (HLA-A*30:02; [1]): 7590 nM
Kd (HLA-A*29:02; [1]): 407 nM

RYWYLNHTV
Kd (HLA-A*24:02; [4]): 76.8 nM
Kd (HLA-A*23:01; [4]): 15.3 nM
Kd (HLA-A*01:01; [4]): ≥ 28200 nM
Kd (HLA-A*26:01; [4]): ≥ 77900 nM
Kd (HLA-A*30:02; [4]): 0.603 nM
Kd (HLA-A*29:02; [4]): ≥ 38600 nM

NYLRKRVMF
Kd (HLA-A*24:02; [1]): 18000 nM
Kd (HLA-A*23:01; [1]): 11200 nM
Kd (HLA-A*01:01; [1]): ≥ 78100 nM
Kd (HLA-A*26:01; [1]): ≥ 60200 nM
Kd (HLA-A*30:02; [1]): 9150 nM
Kd (HLA-A*29:02; [1]): 3270 nM

CWFADTNLI
Kd (HLA-A*24:02; [7]): 101 nM
Kd (HLA-A*23:01; [7]): 88.6 nM
Kd (HLA-A*29:02; [7]): 1290 nM

GPMVAGGLLL
Kd (HLA-B*07:02; [2]): 36.3 nM
Kd (HLA-B*51:01): ≥ 69600 nM

FQPHQLWTTL
Kd (HLA-A*32:01; source organism: Dengue virus 1 Brazil/97-11/1997): 761 nM

LVKESMASLK
Kd (HLA-A*11:01): 11.3 nM
Kd (HLA-A*03:01): 4.1 nM
Kd (HLA-A*68:01): 0.437 nM
Kd (HLA-A*33:01; [8]): 394 nM
Kd (HLA-A*29:02; [8]): ≥ 53600 nM
Kd (HLA-A*31:01; [8]): 64.5 nM

RVRNIIASI
Kd (HLA-B*08:01): 21.7 nM
Kd (HLA-A*30:01): 0.103 nM
Kd (HLA-A*32:01; [8]): 1.04 nM

SPAAAQKAT
Kd (HLA-B*07:02; [2]): 14.3 nM

GTINRILVI
Kd (HLA-A*32:01; [8]): 14.5 nM

EDAQPGLLSY
Kd (HLA-A*24:02; [6]): ≥ 70300 nM
Kd (HLA-A*23:01; [6]): ≥ 70000 nM
Kd (HLA-A*01:01; [6]): ≥ 70400 nM
Kd (HLA-A*26:01; [6]): ≥ 25800 nM
Kd (HLA-A*30:02; [6]): 17600 nM
Kd (HLA-A*29:02; [6]): 8210 nM

FFVYENAFL
Kd (HLA-A*24:02; [1]): 9050 nM
Kd (HLA-A*23:01; [1]): 6780 nM
Kd (HLA-A*01:01; [1]): ≥ 78100 nM
Kd (HLA-A*26:01; [1]): ≥ 32700 nM
Kd (HLA-A*30:02; [1]): ≥ 96800 nM
Kd (HLA-A*29:02; [1]): ≥ 107000 nM

LVSTQEFRY
Kd (HLA-A*24:02; [1]): 12700 nM
Kd (HLA-A*23:01; [1]): 10900 nM
Kd (HLA-A*01:01; [1]): 30.8 nM
Kd (HLA-A*26:01; [1]): 1760 nM
Kd (HLA-A*30:02; [1]): 5.95 nM
Kd (HLA-A*29:02; [1]): 6.84 nM

RVYVGNVAW
Kd (HLA-A*32:01; [8]): 1.08 nM

NDLKYSWKTW
Kd (HLA-B*44:02): 2720 nM
Kd (HLA-A*32:01; [2]): 8890 nM

KAEVSMHEV
Kd (HLA-A*24:02; [9]): ≥ 77500 nM
Kd (HLA-A*23:01; [9]): ≥ 68600 nM
Kd (HLA-A*01:01; [9]): 17500 nM
Kd (HLA-A*26:01; [9]): ≥ 77900 nM
Kd (HLA-A*30:02; [9]): ≥ 51900 nM
Kd (HLA-A*29:02; [9]): ≥ 78900 nM

SPNPTIEAGR
Kd (HLA-B*07:02; source organism: Dengue virus 2 Jamaica/1409/1983): 1400 nM

RLGYILEEI
Kd (HLA-A*32:01; [5]): 1110 nM

SPAAAQKATL
Kd (HLA-B*07:02; [2]): 3.95 nM
